Data published in US20130058935A1 (INSTITUTE FOR CANCER RESEARCH, published 2013).

Target: T1, mouse TEM7R extracellular domain, 6xHis-tagged, secreted (mouse, UniProt Q9DC11 31-455)
T1 construct: extracellular domain; also called mTEM7R ECD; TEM7R ECD; not shown: 6xHis tag from the pSecTag2/Hygro A vector
Assay: SPR (BIAcore), ECD immobilised on CM5 chip, 1:1 Langmuir fit
Procedure: scFvs were expressed in E. coli and purified by sequential IMAC and size exclusion chromatography (Robinson, M K et al. (2005) Cancer Research 65:1471-8). Binding of the TEM7R scFv, to extracellular domain (ECDs) was characterized by SPR using TEM7R ECD as the target antigen (Yuan, Q A et al. (2006) Mol. Cancer Ther. 5:2096-105). ECD was diluted to 10 μg/mL in 10 mM sodium acetate pH 5.2 and approximately 200 RU of ECD were immobilized onto CM5 sensor chips via NHS-ester chemistry.
Kinetic constants for A5 were determined by passing serially diluted samples (0 nM to 2 μM) over flow cells at flow rate of 40 μL/min. Response against an ErbB2 coated flow cell was used as a negative control and subtracted from the response generated against the TEM7R ECD to obtain the final sensorgrams. Data was evaluated using BIAEvaluation 3.2 software (BIAcore, Piscataway, N.J.) and fit using the 1:1 Langmuir binding model. Flow cells were regenerated by sequential 15-second pulses with 10 mM glycine, pH 2 and 50 mM Triethylamine, pH 10 followed by equilibration with PBS running buffer.

T1 sequence (Q9DC11 31-455): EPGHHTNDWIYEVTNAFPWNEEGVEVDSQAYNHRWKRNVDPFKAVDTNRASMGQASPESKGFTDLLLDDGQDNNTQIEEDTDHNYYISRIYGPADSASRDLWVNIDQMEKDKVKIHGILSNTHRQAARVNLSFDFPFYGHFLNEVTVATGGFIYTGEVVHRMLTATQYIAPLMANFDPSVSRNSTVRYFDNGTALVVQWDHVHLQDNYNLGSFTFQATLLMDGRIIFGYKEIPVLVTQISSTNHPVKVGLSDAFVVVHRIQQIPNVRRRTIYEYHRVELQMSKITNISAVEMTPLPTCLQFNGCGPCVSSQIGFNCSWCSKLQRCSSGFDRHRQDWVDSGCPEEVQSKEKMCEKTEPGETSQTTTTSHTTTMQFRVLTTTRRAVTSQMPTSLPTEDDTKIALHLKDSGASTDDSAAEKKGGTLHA

B1: anti-mTEM7R scFv#4 (scFv)
scFv: MAQVQLVESGGGLVQPGGSLRLSCAASGFTFSSYEMNWVRQAPGKGLEWVSYISSSGSTIYYADSVKGRFTISRDNSKNTLYLQMNSLRAEDTAVYYCASGDYMDVWGQGTTVTVSSSASGAELGGGGSGGGGSGGGGSTSDIQLTQSPSSLSASVGDRVTITCQASQDISNYLNWYQQKPGKAPKLLMYDASNLETGVPSRFSGSGSGTDFTFTISSLQPEDFATYYCQQSDNLPYTFGQGTKVDIKRS
notes: Human scFv from a naive phage library, expressed in E. coli TG1 (pUC119mycHis / pSYN2) and purified by Ni-NTA, so it carries a His tag; also called clone 4; anti-TEM7R scFv
**Q.** For B1, which Kd is on record?
**A.** 10 nM
